The target of experiment [1] is T1, glucagon receptor extracellular domain, wild type (recombinant, soluble) (Homo sapiens).
T1 construct: glucagon receptor (GCGR), human, extracellular domain; A biotinylated form was used for phage selections; also called GCGR ECD; WT ECD
T1 chain: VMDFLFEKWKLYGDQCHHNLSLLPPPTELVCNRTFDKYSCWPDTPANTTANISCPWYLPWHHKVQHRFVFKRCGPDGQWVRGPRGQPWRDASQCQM
Nature of the experiment: AlphaScreen or HTRF; competition: soluble WT or G40S GCGR ECD against WT GCGR ECD on donor beads for binding to mAb7, its variants (IgG) or mAb1 on acceptor beads. As to conditions: both partners purified. On the technique in general: Alpha assays give light when donor and acceptor beads are brought close together.

In experiment [2] the target is T2, glucagon receptor extracellular domain with the naturally occurring G40S mutation (recombinant, soluble) (human).
T2 chain: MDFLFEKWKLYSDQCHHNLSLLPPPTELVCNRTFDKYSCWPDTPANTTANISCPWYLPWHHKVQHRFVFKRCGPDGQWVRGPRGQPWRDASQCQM
As to the kind of experiment: AlphaScreen competition with WT ECD.

B1: mAb1, inhibitory anti-GCGR monoclonal antibody (antibody, V domains shown)
VH: QVQLVESGGGVVQPGRSLRLSCAASGFTFSSYGMHWVRQAPGKGLEWVAVMWYDGSNKDYVDSVKGRFTISRDNSKNTLYLQMNRLRAEDTAVYYCAREKDHYDILTGYNYYYGLDVWGQGTTVTVSS
VL: DIQMTQSPSSLSASVGDRVTITCRASQGIRNDLGWYQQKPGKAPKRLIYAASSLESGVPSRFSGSGSGTEFTLTISSVQPEDFVTYYCLQHNSNPLTFGGGTKVEIK
notes: as the heavy chain of the mAb1 Fab in PDB 4LF3 and 4ERS; as the light chain of the mAb1 Fab in PDB 4LF3 and 4ERS; also called anti-GCGR mAb1
B1: the binding result in experiment [1] was “binds”.

B2: mAb7.v35, humanized mAb7 with S54T/N97G (IgG) (antibody, V domains shown)
VH: EVQLVESGPGLVKPSETLSLSCTVSGDSITSGFWNWIRQPPGKGLEWIGYIGFTGSTYYNPSLKSRVTISRDTSKNQYSLKLSSVTAADTAVYYCASVDGSAALDYWGQGTLVTVSS
VL: DIVMTQTPLSLPVTPGQPASISCRSSQSLVHSNGNTYLHWYLQKPGQSPQLLIYKVSNRFSGVPDRFSGSGSGTDFTLKISRVEAEDVGVYYCSQSTHVPWTFGQGTKVEIK
notes: mAb7.v1 heavy chain with S54T (CDR H2) and N97G (CDR H3); that is the heavy chain of m13 (PDB 4LEX) with S28T put back and N97G added; as the light chain of m13 (PDB 4LEX); IgG; The methods say that mutations found in the humanised background were also introduced into murine mAb7 clones; source: recombinant antibody
As for B2, in experiment [2], the 50% inhibitory concentration (IC50) – broadly, the concentration that inhibits the measured activity by half – was 21 nM. In addition, the binding result in experiment [1] is listed as “binds”.

B3: mAb7.v19, humanized mAb7 with N97G (IgG) (antibody, V domains shown)
VH: EVQLVESGPGLVKPSETLSLSCTVSGDSITSGFWNWIRQPPGKGLEWIGYIGFSGSTYYNPSLKSRVTISRDTSKNQYSLKLSSVTAADTAVYYCASVDGSAALDYWGQGTLVTVSS
VL: DIVMTQTPLSLPVTPGQPASISCRSSQSLVHSNGNTYLHWYLQKPGQSPQLLIYKVSNRFSGVPDRFSGSGSGTDFTLKISRVEAEDVGVYYCSQSTHVPWTFGQGTKVEIK
notes: mAb7.v1 heavy chain with N97G (CDR H3); that is the heavy chain of m13 (PDB 4LEX) with S28T and S54T put back and N97G added; as the light chain of m13 (PDB 4LEX); IgG; also called N97G containing antibody; source: recombinant antibody
For the molecule B3, in experiment [2], the IC50 was found to be 87 nM. The binding result in experiment [1] is “binds”.

B4: mAb7.v1, humanized version of mAb7 (IgG) (antibody, V domains shown)
VH: EVQLVESGPGLVKPSETLSLSCTVSGDSITSGFWNWIRQPPGKGLEWIGYIGFSGSTYYNPSLKSRVTISRDTSKNQYSLKLSSVTAADTAVYYCASVDNSAALDYWGQGTLVTVSS
VL: DIVMTQTPLSLPVTPGQPASISCRSSQSLVHSNGNTYLHWYLQKPGQSPQLLIYKVSNRFSGVPDRFSGSGSGTDFTLKISRVEAEDVGVYYCSQSTHVPWTFGQGTKVEIK
notes: as the light chain of m13 (PDB 4LEX); IgG; source: recombinant antibody
On to B4, for which, in experiment [1], the binding result is “binds”.

B5: mAb7.v11, humanized mAb7 with S54T (IgG) (antibody, V domains shown)
VH: EVQLVESGPGLVKPSETLSLSCTVSGDSITSGFWNWIRQPPGKGLEWIGYIGFTGSTYYNPSLKSRVTISRDTSKNQYSLKLSSVTAADTAVYYCASVDNSAALDYWGQGTLVTVSS
VL: DIVMTQTPLSLPVTPGQPASISCRSSQSLVHSNGNTYLHWYLQKPGQSPQLLIYKVSNRFSGVPDRFSGSGSGTDFTLKISRVEAEDVGVYYCSQSTHVPWTFGQGTKVEIK
notes: mAb7.v1 heavy chain with S54T (CDR H2); that is the heavy chain of m13 (PDB 4LEX) with S28T put back; as the light chain of m13 (PDB 4LEX); IgG; also called S54T alone; source: recombinant antibody
Consider B5, for which the binding result in experiment [1] was “binds”.

The values are drawn from publication PMC3861664 (The Journal of Biological Chemistry, 2013).
